The values that follow are results of earlier work, collected in patent US20070264667A1, “Method and system for assaying transferase activity” (priority 2003, published 2007).

The target of one series is IRK (Homo sapiens, UniProt P06213). The settings on record: competitive inhibitor of IRK; ref (20); read-out: reported Km.
The target of the next series is EGF receptor kinase (Homo sapiens, UniProt P00533). The following applies: ref (22).
Sequence of EGF receptor kinase (P00533 25-1210): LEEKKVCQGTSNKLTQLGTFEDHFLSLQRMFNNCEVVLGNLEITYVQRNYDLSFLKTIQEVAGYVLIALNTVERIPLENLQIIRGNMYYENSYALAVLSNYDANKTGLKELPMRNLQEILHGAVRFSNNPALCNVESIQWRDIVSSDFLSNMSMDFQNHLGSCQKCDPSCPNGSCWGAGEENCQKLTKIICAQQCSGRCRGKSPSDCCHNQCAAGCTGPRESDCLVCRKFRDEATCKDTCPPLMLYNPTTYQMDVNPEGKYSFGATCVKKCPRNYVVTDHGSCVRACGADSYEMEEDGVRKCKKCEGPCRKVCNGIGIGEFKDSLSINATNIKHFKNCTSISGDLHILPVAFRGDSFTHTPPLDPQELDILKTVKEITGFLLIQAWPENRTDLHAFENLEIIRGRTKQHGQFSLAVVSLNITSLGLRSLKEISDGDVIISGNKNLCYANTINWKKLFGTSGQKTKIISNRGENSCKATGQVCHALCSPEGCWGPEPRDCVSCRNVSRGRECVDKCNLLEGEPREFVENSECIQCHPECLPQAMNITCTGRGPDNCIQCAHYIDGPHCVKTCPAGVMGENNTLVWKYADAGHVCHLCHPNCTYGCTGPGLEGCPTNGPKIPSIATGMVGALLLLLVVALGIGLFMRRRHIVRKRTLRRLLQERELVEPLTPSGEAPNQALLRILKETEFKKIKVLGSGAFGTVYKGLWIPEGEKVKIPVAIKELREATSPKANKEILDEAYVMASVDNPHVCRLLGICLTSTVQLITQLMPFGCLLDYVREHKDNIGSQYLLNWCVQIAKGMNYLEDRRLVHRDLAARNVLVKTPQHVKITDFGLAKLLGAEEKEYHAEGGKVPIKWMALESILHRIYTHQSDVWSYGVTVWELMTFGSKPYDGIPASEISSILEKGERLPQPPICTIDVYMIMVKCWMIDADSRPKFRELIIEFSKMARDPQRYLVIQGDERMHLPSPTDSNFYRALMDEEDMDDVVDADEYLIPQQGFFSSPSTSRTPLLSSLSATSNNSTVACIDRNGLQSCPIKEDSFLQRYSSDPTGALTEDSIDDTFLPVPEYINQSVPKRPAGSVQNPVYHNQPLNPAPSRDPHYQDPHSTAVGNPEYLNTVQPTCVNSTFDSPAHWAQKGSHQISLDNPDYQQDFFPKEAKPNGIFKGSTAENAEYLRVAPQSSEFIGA

In the case of “1RS727: peptide inhibitor of IRK with the sequence KKKLPATGDYMNMSPVGD”, the Km (as a rule, the concentration of substrate that gives half-maximal velocity) with IRK was approximately 24 µM. On to `O=C(O)c1cc(N(Cc2ccccc2O)Cc2cc(O)ccc2O)ccc1O` [Lavendustin A], for which the Ki (commonly a dissociation constant, usually derived from enzyme kinetics or from competition with a known ligand) at EGF receptor kinase is 11 nM.
